Data on two molecules can be found in US20190211317A1, “PEPTIDES AND NANOPARTICLES FOR INTRACELLULAR DELIVERY OF GENOME-EDITING MOLECULES” (Aadigen, LLC, priority 2016, published 2019).

Non-standard residues stand in square brackets, D forms with d. No end group written: not given here. βAla = NCCC(=O)O

This experiment concerns the target CY5 fluorescently labeled CAS9 protein (S. pyogenes), Q99ZW2. Briefly: fluorescence titration of 5 nM CY5-CAS9 with increasing peptide, quadratic fit. As to conditions: remark: other sources report otherwise.

Sequence of CY5 fluorescently labeled CAS9 protein (S. pyogenes), Q99ZW2 (Q99ZW2 whole entry): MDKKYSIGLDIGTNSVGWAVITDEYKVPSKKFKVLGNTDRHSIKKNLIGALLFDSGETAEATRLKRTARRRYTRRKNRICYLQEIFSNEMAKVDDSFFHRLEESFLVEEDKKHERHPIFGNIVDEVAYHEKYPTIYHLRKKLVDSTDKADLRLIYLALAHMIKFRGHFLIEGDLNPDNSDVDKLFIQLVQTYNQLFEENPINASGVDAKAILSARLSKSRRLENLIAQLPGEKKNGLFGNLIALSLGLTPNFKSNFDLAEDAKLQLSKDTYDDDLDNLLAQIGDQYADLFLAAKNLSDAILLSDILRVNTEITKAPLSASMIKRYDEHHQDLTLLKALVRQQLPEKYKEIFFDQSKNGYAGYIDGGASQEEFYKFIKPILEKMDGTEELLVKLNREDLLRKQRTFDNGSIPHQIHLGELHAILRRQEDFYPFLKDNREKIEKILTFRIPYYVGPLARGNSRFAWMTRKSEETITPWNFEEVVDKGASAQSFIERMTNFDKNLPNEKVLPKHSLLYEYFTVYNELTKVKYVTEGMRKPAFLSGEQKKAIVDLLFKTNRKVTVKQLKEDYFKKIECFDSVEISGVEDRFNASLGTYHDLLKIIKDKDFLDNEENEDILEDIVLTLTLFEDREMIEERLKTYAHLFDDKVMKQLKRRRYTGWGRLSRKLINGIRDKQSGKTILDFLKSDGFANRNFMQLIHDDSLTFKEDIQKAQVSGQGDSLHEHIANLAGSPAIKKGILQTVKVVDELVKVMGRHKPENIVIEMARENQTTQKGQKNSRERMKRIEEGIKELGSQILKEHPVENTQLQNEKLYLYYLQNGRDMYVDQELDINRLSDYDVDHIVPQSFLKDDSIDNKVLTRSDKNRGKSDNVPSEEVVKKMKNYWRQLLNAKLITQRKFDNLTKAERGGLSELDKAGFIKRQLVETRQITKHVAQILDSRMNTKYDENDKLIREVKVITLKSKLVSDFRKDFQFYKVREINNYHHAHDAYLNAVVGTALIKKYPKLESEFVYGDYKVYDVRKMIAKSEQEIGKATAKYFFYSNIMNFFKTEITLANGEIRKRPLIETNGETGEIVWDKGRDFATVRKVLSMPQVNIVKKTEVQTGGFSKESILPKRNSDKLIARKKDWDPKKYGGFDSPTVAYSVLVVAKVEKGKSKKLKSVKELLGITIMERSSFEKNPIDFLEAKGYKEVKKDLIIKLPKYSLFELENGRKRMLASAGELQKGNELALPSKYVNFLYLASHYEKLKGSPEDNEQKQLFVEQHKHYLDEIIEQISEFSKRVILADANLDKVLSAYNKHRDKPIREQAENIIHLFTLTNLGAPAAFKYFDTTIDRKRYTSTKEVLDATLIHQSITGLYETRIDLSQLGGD

B1: CADY (peptide)
peptide: GLWRALWRLLRSLWRLLWKV
modifications: also: acetate salt
A word on the Kd: it is the concentration at which binding is half-saturated. The low end stands for tighter binding, the high end for weaker binding. On to B1, for which the Kd was more than 100 nM.

B2: VEPEP-6 (peptide)
peptide: [βAla]LWRALWRLWRSLWRLLWKA
modifications: also: acetate salt
Take B2: the Kd is more than 100 nM.
